The results in this text go back to patent US20190324040A1.

The target in experiment [1] is Zika virus (ZIKV), whole virus particles (Zika virus). The experiment in a line: cell-based or functional assay.
Experiment [2] has the same target. The experiment in a line: virus capture ELISA.

B1: CC4 mAb (P1604) (antibody, V domains shown)
VH: VQLVQESGPGPVKPSETLSLTCTVSGGSISSYYWSWIRQPAGKGLEWIGRIYTSGSTNYNPSLKSRVTMSVDTSKNQFSLKLSSVTAADTAVYYCARESGSLYMDVWGKGTAVTVSS
VL: DVVMTQSPATLSLPPGERATLSCRASQSVSSYLAWYQQKPGQAPRLLIYDASNRATGIPARFSGSGSGTDFTLTISSLEPEDFAVYYCQQRSNWPLTFGGGTKVDIK
In the case of B1, in experiment [1], the % of Zika virus Neutralized (Vero infectivity assay), antibody at 4 µg/ml turned out to be 19.3%. Moreover, in experiment [2], the ZIKV binding Abs 450 nm came out at 0.87 Abs 450 nm.
